Reference: patent US20190119348A1, “PARATHYROID HORMONE RECEPTOR 1 ANTAGONIST AND INVERSE AGONIST POLYPEPTIDES AND METHODS OF THEIR USE” (The General Hospital Corporation, priority 2016, published 2019)

Target: human parathyroid hormone receptor 1 (hPTHR1) (human) (UniProt Q03431)
Experiment: cell-based or functional assay

human parathyroid hormone receptor 1 (hPTHR1) (human), sequence (Q03431 27-593): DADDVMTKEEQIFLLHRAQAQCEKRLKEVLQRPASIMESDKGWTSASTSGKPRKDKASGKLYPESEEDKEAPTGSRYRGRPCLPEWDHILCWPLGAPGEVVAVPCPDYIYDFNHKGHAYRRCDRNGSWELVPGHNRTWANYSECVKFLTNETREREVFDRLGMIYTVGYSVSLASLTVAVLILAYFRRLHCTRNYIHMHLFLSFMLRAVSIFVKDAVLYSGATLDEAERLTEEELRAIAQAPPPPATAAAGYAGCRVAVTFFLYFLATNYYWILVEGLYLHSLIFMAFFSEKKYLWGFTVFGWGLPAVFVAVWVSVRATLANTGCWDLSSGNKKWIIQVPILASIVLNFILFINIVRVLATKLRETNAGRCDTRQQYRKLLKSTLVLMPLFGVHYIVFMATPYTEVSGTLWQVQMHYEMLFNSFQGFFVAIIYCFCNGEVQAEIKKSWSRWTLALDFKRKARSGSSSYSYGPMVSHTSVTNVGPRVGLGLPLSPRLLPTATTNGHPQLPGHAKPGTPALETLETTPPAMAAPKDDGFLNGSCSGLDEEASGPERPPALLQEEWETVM

IC50 (nanomolar value of the pIC50), antagonism of PTH(1-34)-induced cAMP response, GP-2.3 cells | pIC50, antagonism of PTH(1-34)-induced cAMP response (GloSensor), GP-2.3 cells | IC50 (nanomolar value of the pIC50), antagonism of PTH(1-34)-induced cAMP response, SGS-72 cells [nM] | IC50 (nanomolar value of the pIC50), antagonism of PTHrP(1-36)-induced cAMP response, SGS-72 cells [nM] | IC50, antagonism of PTH(1-34) (0.3 nM)-induced cAMP response, SGS-72 cells [nM] | IC50, antagonism of PTHrP(1-36) (0.3 nM)-induced cAMP response, SGS-72 cells [nM] | pIC50, antagonism of PTH(1-34) (0.3 nM)-induced cAMP response, SGS-72 cells | pIC50, antagonism of PTH(1-34)-induced cAMP response, SGS-72 cells | pIC50, antagonism of PTHrP(1-36) (0.3 nM)-induced cAMP response, SGS-72 cells | pIC50, antagonism of PTHrP(1-36)-induced cAMP response, SGS-72 cells | Substance
2.8 µM | 5.55 -log M | – | – | – | – | – | – | – | – | Nle8, TMR, dW12, C35-bPTH(7-35)-1977 (peptide)
3.61 µM | 5.44 -log M | 12 | 10 | 20.3 | 9.71 | 7.69 -log M | 7.91 -log M | 8.01 -log M | 8.01 -log M | Nle8, TMR, dW12, W23, C37-LA-PTH(5-37)-1975 (peptide)
224 nM | 6.65 -log M | – | – | 4.39 | – | 8.36 -log M | – | – | – | Nle8, dW12, W23, C37-LA-PTH(5-37)-1974 (peptide)
– | – | – | – | 1.75 | – | 8.76 -log M | – | – | – | Nle8, dW12, W23, Y36-LA-PTH(5-36)-1954 (peptide)
642 nM | 6.19 -log M | 21 | 13 | 24.1 | 12.9 | 7.62 -log M | 7.68 -log M | 7.89 -log M | 7.89 -log M | PEG20-Nle8, TMR, dW12, W23, C37-LA-PTH(5-37)-1978 (peptide)
– | – | – | – | 2.13 | – | 8.67 -log M | – | – | – | TMR-L11, dW12, W23-LA-PTH(5-36)-2004 (peptide)
– | – | – | – | 1.49 | – | 8.83 -log M | – | – | – | TMR-L11, dW12, W23-LA-PTH(7-36)-2002 (peptide)
– | – | – | – | 3.02 | – | 8.52 -log M | – | – | – | TMR-Nle8, L11, dW12, W23-LA-PTH(5-36)-2000 (peptide)
– | – | – | – | 2.21 | – | 8.65 -log M | – | – | – | TMR-Nle8, L11, dW12, W23-LA-PTH(7-36)-1998 (peptide)
– | – | – | – | 3.34 | – | 8.48 -log M | – | – | – | TMR-Nle8, dW12, W23-LA-PTH(7-36)-1993 (peptide)
1.96 µM | 5.71 -log M | – | – | 18.5 | – | 7.73 -log M | – | – | – | TMR-dW12, W23, C37-LA-PTH(5-37)-1976 (peptide)
160 nM | 6.8 -log M | – | – | 3.23 | – | 8.49 -log M | – | – | – | TMR-dW12, W23-LA-PTH(5-36)-1953 (peptide)
– | – | – | – | 1.95 | – | 8.71 -log M | – | – | – | TMR-dW12, W23-LA-PTH(7-36)-1991 (peptide)
